Measured values as given in PMC10411628 (Chemical Science, 2023).
Values belong to the molecule of their own block, whether it stands above or below them.

Assays:
pancreatic cancer cells = details: cited from earlier work
[1] = Circular dichroism of DG12; format: physicochemical; details: circular dichroism spectrum
[2] = NMR titration of CP-1 with DG12; format: binding; details: 1H–1H COSY, equimolar CP-1 and DG12, 20 mM, d6-DMSO, 25 °C
CP-1 (cyclic peptide 1) [3] = experiment: nanochannel device, transmembrane ionic current and Faraday current
CP-1 (cyclic peptide 1) [4] = experiment: electrochemical impedance spectroscopy
CP-1 (cyclic peptide 1) [5] = experiment: QCM-D
CP-1 (cyclic peptide 1) [6] = experiment: BLI

Molecule: Cc1sc(C(=O)c2cncnc2N[C@@H]2C[C@H](COS(N)(=O)=O)[C@@H](O)C2)cc1[C@@H]1NCCc2ccc(Cl)cc21 [TAK-981]
effect on SUMOylation (pancreatic cancer cells): selectively reduces SUMOylation

conformation [1]: random coil conformation
Molecule: DVIEVYQEQTGG [DG12]
largest chemical shift changes upon complexation, protons of DG12 [2]: H13 (isoleucine; C–H), H45 (glutamine; C–H), H51 (threonine; C–H), and H54 (glycine; N–H)

transmembrane ionic current increase ratio at 1 × 10^−6 M DG12 (CP-1 (cyclic peptide 1) [3]): 84%
Rct increase at 10 nM DG12 (CP-1 (cyclic peptide 1) [4]): 277%
adsorption amount (CP-1 (cyclic peptide 1) [5]): 142 ng cm^−2
Kd (CP-1 (cyclic peptide 1) [6]): 5.86 µM
Molecule: DVIEVYQEQTGG [DG12, terminal dodecapeptide sequence of SUMO1]
